{"source": "patent US20030186915A1", "about": "“Regulatory polynucleotides and uses thereof” (priority 2002, published 2003)", "key": {"[1]": {"tested_on": "SOST regulatory region", "assay": "Transactivation of SOST reporter constructs by co-transfected expression plasmids in SAOS cells", "assay_type": "cell-based, human", "settings": "factor overexpressed, 48 hrs after transfection", "experimental": "To determine whether transfected Cbfa1 could drive further increases in the transcriptional activity of the SOST promoter, the Cbfa1 gene was recovered from an SAOS cDNA library and inserted it into a mammalian expression vector.\nTo test the effects of the two proteins Cbaf1 and MyoD on transactivitation of the 1.8 kb SOST regulatory region, the following tests were performed. SAOS cells were transfected with 500 ng of either the EcoRV fragment (nucleotides 1673 to 1814 of SEQ ID NO: 1) or 1.8 kb SOST regulatory region (nucleotides 1 to 1841 of SEQ ID NO:1) and the indicated combinations of expression plasmids for MyoD (150 ng) or Cbfa1 (30 ng, 300 ng). pBluescript (Stratagene) was used as needed to bring the DNA total to 1 μg per well, and SEAP (20 ng) was used to normalize for transfection efficiency. Cells were harvested 48 hrs after transfection. Both the SOST-luc and the EcoRV fragment were activated by Cbaf1 and MyoD."}, "[2]": {"tested_on": "SAOS cells", "assay": "Luciferase reporter assay of SOST regulatory region constructs, transient transfection", "assay_type": "cell-based, human", "settings": "deletion constructs in pGL2-Basic"}}, "data": [{"molecule": "Cbfa1: transcription factor; gene recovered from an SAOS cDNA library, overexpressed from a mammalian expression vector (protein) MASNSLFSTVTPCQQNFFWDPSTSRRFSPPSSSLQPGKMSDVSPVVAAQQQQQQQQQQQQQQQQQQQQQQQEAAAAAAAAAAAAAAAAAVPRLRPPHDNRTMVEIIADHPAELVRTDSPNFLCSVLPSHWRCNKTLPVAFKVVALGEVPDGTVVTVMAGNDENYSAELRNASAVMKNQVARFNDLRFVGRSGRGKSFTLTITVFTNPPQVATYHRAIKVTVDGPREPRRHRQKLDDSKPSLFSDRLSDLGRIPHPSMRVGVPPQNPRPSLNSAPSPFNPQGQSQITDPRQAQSSPPWSYDQSYPSYLSQMTSPSIHSTTPLSSTRGTGLPAITDVPRRISDDDTATSDFCLWPSTLSKKSQAGASELGPFSDPRQFPSISSLTESRFSNPRMHYPATFTYTPPVTSGMSLGMSATTHYHTYLPPPYPGSSQSQSGPFQTSSTPYLYYGTSSGSYQFPMVPGGDRSPSRMLPPCTTTSNGSTLLNPNLPNQNDGVDADGSHSSSPTVLNSSGRMDESVWRPY", "values": [{"measurement": "activity of the 1.8 kb SOST regulatory region reporter (SOST-luc)", "setting": "[1]", "result": "increased activity"}, {"measurement": "activity of the EcoRV fragment reporter", "setting": "[1]", "result": "increased activity"}, {"measurement": "activity of the 1.8 kb SOST regulatory region reporter (SOST-luc)", "setting": "[1]; listed as Cbaf1", "result": "activated"}, {"measurement": "activity of the EcoRV fragment reporter", "setting": "[1]; listed as Cbaf1", "result": "activated"}]}, {"molecule": "MyoD: transcription factor overexpressed from an expression plasmid (150 ng) (protein, UniProt P15172 1-320, looked up) Myoblast determination …: MELLSPPLRDVDLTAPDGSLCSFATTDDFYDDPCFDSPDLRFFEDLDPRLMHVGALLKPEEHSHFPAAVHPAPGAREDEHVRAPSGHHQAGRCLLWACKACKRKTTNADRRKAATMRERRRLSKVNEAFETLKRCTSSNPNQRLPKVEILRNAIRYIEGLQALLRDQDAAPPGAAAAFYAPGPLPPGRGGEHYSGDSDASSPRSNCSDGMMDYSGPPSGARRRNCYEGAYYNEAPSEPRPGKSAAVSSLDCLSSIVERISTESPAAPALLLADVPSESPPRRQEAAAPSEGESSGDPTQSPDAAPQCPAGANPNPIYQVL", "values": [{"measurement": "activity of the 1.8 kb SOST regulatory region reporter (SOST-luc)", "setting": "[1]", "result": "activated"}, {"measurement": "activity of the EcoRV fragment reporter", "setting": "[1]", "result": "activated"}]}, {"molecule": "EcoRV to BglII fragment: about 142 nucleotides, nucleotides 1673 to 1814 of SEQ ID NO: 1, in luciferase reporter construct (nucleic acid, listed as Homo sapiens, in luciferase reporter construct) DNA: ATCTGAAAACCACAGCCGCCAGCACGTGGGAGGTGCCGGAGAGCAGGCTTGGGCCTTGCCTCACACGCCCCCTCTCTCTGGGTCACCTGGGAGTGCCAGCAGCAATTTGGAAGTTTGCTGAGCTAGAGGAGAAGTCTTTGGG", "values": [{"measurement": "increase in luciferase activity over the 1.8 kb SOST regulatory region", "setting": "[2]", "result": "almost three fold"}]}]}
